Laboratory results as given in US20220016257A1 (Daiichi Sankyo, published 2022).

T1: EC3-deleted human CDH6 (EC3 deletion mutant, on cells) (human, UniProt P55285 54-790)
T1 construct: Full-length human CDH6 lacking EC3; Cloned in p3xFLAG-CMV-9; also called EC3-deleted hCDH6
T1 sequence: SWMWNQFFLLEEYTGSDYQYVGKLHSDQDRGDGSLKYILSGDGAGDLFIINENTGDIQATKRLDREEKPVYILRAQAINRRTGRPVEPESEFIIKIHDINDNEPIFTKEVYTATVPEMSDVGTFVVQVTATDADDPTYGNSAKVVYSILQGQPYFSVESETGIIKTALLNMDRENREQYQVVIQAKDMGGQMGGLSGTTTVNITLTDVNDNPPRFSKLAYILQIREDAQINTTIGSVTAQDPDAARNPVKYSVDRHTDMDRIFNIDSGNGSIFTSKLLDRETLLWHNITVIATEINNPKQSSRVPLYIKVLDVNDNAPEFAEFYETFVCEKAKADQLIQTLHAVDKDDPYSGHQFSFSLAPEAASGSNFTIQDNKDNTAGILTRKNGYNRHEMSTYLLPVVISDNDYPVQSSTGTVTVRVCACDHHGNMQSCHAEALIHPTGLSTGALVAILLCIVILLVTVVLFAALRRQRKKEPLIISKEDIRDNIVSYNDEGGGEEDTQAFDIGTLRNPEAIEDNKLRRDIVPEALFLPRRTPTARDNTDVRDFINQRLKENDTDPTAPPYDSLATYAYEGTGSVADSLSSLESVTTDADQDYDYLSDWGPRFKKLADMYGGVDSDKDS

T2: human CDH6 (full-length, on cells) (human, UniProt P55285 54-790)
T2 construct: also called hCDH6; full-length hCDH6
T2 sequence: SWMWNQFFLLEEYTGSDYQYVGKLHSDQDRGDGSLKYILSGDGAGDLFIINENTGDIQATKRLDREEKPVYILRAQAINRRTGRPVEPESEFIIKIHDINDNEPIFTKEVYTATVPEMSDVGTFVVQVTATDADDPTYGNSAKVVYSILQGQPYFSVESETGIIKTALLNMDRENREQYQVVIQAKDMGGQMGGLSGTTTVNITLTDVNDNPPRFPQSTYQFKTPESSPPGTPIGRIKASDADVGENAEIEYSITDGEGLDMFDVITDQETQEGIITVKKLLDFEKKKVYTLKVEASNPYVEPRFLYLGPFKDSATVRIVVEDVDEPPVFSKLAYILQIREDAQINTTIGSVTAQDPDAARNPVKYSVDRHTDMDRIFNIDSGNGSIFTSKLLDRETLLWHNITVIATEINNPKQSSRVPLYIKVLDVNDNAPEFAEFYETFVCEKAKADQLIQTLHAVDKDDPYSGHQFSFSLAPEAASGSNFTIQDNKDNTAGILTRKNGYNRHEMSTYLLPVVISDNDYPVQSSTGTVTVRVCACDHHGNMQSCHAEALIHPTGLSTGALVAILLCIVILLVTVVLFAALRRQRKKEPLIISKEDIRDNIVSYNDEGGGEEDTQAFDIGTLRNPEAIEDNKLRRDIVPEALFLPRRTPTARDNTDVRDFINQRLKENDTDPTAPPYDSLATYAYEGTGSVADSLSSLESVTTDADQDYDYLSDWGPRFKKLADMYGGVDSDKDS


Key:
[1] = target: T1, EC3-deleted human CDH6 (EC3 deletion …); assay: flow cytometry, 293α cells transiently expressing EC3-deleted hCDH6 (open) against untransfected cells (shaded), APC anti-human IgG F(ab')2
Experimental: The cells were cultured overnight under conditions of 37° C. and 5% CO₂, and thereafter, a cell suspension was prepared. […] Thereafter, the cells were suspended by the addition of each of the 4 humanized hG019 antibodies (clone Nos: H01L02, H02L02, H02L03 and H04L02), which had been prepared in Example 5)-5-3, or the anti-CDH6 antibody NOV0712, which had been prepared in Reference Example 1, or human IgG1 (Calbiochem) as a negative control. The cells were left standing at 4° C. for 1 hour. The cells were washed twice with PBS supplemented with 5% FBS, and then suspended by the addition of APC-anti-human IgG goat F(ab′)2 (Jackson ImmunoResearch Laboratories, Inc.) that had been 500-fold diluted with PBS supplemented with 5% FBS. The cells were left standing at 4° C. for 1 hour. The cells were washed twice with PBS supplemented with 5% FBS, followed by detection using a flow cytometer (Canto II; BD Biosciences). The data was analyzed using FlowJo (TreeStar, Inc.). In the histograms of FIGS. 5-1 to 5-6, the abscissa depicts APC fluorescence intensity indicating the amount of the antibody bound, and the ordinate depicts cell count. […] Fluorescence intensity is enhanced when the antibody binds to full-length hCDH6 or each EC domain deletion mutant on the cell surface. The human IgG1 control binds to none of the transfected cells.

[2] = target: T2, human CDH6 (full-length, on cells); assay: competition flow cytometry on 786-O/hCDH6 cells, unlabeled antibody varied, competitor Alexa488-labeled H01L02 at 5 nM [lower panel]
Experimental: The cell suspension of the 786-O/hCDH6 stably expressing cell line produced in 6)-2-2-1 was centrifuged, and the supernatant was then removed. Thereafter, the cells were suspended by the addition of labeled NOV0712 or labeled H01L02 (final concentration: 5 nM) and, further, the addition of each of the 4 humanized hG019 antibodies (clone Nos: H01L02, H02L02, H02L03 and H04L02), which had been prepared in Example 5)-5-3, or the anti-CDH6 antibody NOV0712, which had been prepared in Reference Example 1, or human IgG1 (Calbiochem) as a negative control (final concentration: as shown in the abscissa of FIG. 7). The cells were left standing at 4° C. for 1 hour. Thereafter, the cells were washed twice with PBS supplemented with 5% FBS, followed by detection using a flow cytometer (Canto II; BD Biosciences). The data was analyzed using FlowJo (TreeStar, Inc.). The abscissa depicts the final concentration of the added unlabeled antibody, and the ordinate depicts the amount of the antibody bound based on mean fluorescence intensity. When unlabeled NOV0712 is added to cells supplemented with labeled NOV0712, the amount of the labeled antibody bound is decreased by replacement with the unlabeled antibody in an addition concentration-dependent manner because they compete with each other for binding to the same epitope. […] Likewise, when each of the 4 unlabeled humanized hG019 antibodies is added to cells supplemented with labeled H01L02, the amount of the labeled antibody bound is decreased by replacement with the unlabeled antibody in an addition concentration-dependent manner because they compete with each other for binding to the same epitope.

Row | Binder | binding result [1] | IC50 (read off the curve) [2]
1 | humanized anti-CDH6 antibody H02L02 (antibody, human IgG1, kappa, V domains shown, hH02 heavy chain and hL02 light chain, human IgG1/kappa; also called H02L02 antibody; humanized hG019) VH: EVQLVQSGAEVKKPGASVKVSCKASGYTFTRNFMHWVRQAPGQGLEWMGWIYPGDGETEYNQKFQGRVTITADRSTSTAYMELSSLRSEDTAVYFCARGVYGGFAGGYFDFWGQGTLVTVSS VL: DIQMTQSPSSLSASVGDRVTITCKASQNIYKNLAWYQQKPGKAPKLLIYDANTLQTGVPSRFSGSGSGSDFTLTISSLQPEDFATYFCQQYYSGWAFGQGTKVEIKR | no binding (tested: not given) | ~3 nM
2 | humanized anti-CDH6 antibody H04L02 (antibody, human IgG1, kappa, V domains shown, hH04 heavy chain and hL02 light chain, human IgG1/kappa; also called H04L02 antibody; humanized hG019) VH: QVQLVQSGAEVKKPGASVKVSCKASGYTFTRNFMHWIRQAPGQGLEWMGWIYPGDGETEYAQKFQGRVTLTADRSTSTAYMELSSLRSEDTAVYYCARGVYGGFAGGYFDFWGQGTLVTVSS VL: DIQMTQSPSSLSASVGDRVTITCKASQNIYKNLAWYQQKPGKAPKLLIYDANTLQTGVPSRFSGSGSGSDFTLTISSLQPEDFATYFCQQYYSGWAFGQGTKVEIKR | no binding (tested: not given) | ~10 nM

Next, values leading:

Row | binding result [1] | IC50 (read off the curve) [2] | Binder
3 | no binding (tested: not given) | ~10 nM | humanized anti-CDH6 antibody H02L03 (antibody, human IgG1, kappa, V domains shown, hH02 heavy chain and hL03 light chain, human IgG1/kappa; also called H02L03 antibody; humanized hG019) VH: EVQLVQSGAEVKKPGASVKVSCKASGYTFTRNFMHWVRQAPGQGLEWMGWIYPGDGETEYNQKFQGRVTITADRSTSTAYMELSSLRSEDTAVYFCARGVYGGFAGGYFDFWGQGTLVTVSS VL: DIQMTQSPSSLSASVGDRVTITCKASQNIYKNLAWYQQKLGEGPKLLIYDANTLQTGVPSRFSGSGSGTDFTLTISSLQPEDFATYYCQQYYSGWAFGQGTKVEIKR
4 | no binding (tested: not given) | ~5 nM | humanized anti-CDH6 antibody H01L02 (antibody, human IgG1, kappa, hH01 heavy chain and hL02 light chain, human IgG1/kappa; also called H01L02 antibody; humanized hG019) heavy: not shown light: DIQMTQSPSSLSASVGDRVTITCKASQNIYKNLAWYQQKPGKAPKLLIYDANTLQTGVPSRFSGSGSGSDFTLTISSLQPEDFATYFCQQYYSGWAFGQGTKVEIKRTVAAPSVFIFPPSDEQLKSGTASVVCLLNNFYPREAKVQWKVDNALQSGNSQESVTEQDSKDSTYSLSSTLTLSKADYEKHKVYACEVTHQGLSSPVTKSFNRGEC
